Assay results from doi:10.1101/2025.05.20.653754 (bioRxiv, 2025).
Blank lines part the entries; values can stand above or below the molecule they belong to.

Legend:
[1] = biological target: full-length Physcomitrium patens DUR3 (PpDUR3) fused with C-terminal GFP (Physcomitrium patens); experiment: SEC
[2] = biological target: full-length maize DUR3 fused with C-terminal GFP (Zea mays L.); experiment: SEC
[3] = biological target: maize DUR3 (ZmDUR3) with a C-terminal Strep-tag (Zea mays L.); experiment: cryo-EM structure
SEC = biological target: the molecule itself; experiment: SEC

- stoichiometry N [2]: 4
Molecule: full-length maize DUR3 fused with C-terminal GFP (natural protein)

- stoichiometry N [3]: 4
Molecule: maize DUR3 (ZmDUR3) with a C-terminal Strep-tag (natural protein)

The next lines start with the molecule.

Molecule: full-length Physcomitrium patens DUR3 (PpDUR3) fused with C-terminal GFP (natural protein)
- stoichiometry N [1]: 4

B1: full-length rice DUR3 (OsDUR3) fused with C-terminal GFP (natural protein, Oryza sativa, UniProt Q7XBS0 1-721, looked up)
chain: MASGVCPPAELGFGAEYYSVVNGVCSRAGSYFGGRPVLTQAVGYAVVLGFGAFFALFTSFLVWLEKRYVGSQHTSEWFNTAGRSVKTGLIASVIVSQWTWAATILQSSNVAWQYGVSGPFWYASGATIQVLLFGVMAIEIKRKAPNAHTVCEIVRARWGTPAHLVFLTFCLLTNVIVTAMLLLGGSAVVNALTGVNVYAASFLIPLGVVVYTLAGGLKATFLASYIHSVVVHAVLVVFVFLVYTSSSKLGSPRVVYDRLMAVASAARDCSADLSRNGQACGPVAGNFKGSYLTMLSSGGLVFGIINIVGNFGTVFVDNGYWMSAIAARPSSTHKGYLLGGLVWFAVPFSLATSLGLGALALDLPLTAAEAAKGLVPPATATALMGKSGSVLLLTMLFMAVTSAGSAELVAVSSLCTYDIYRTYLNPGASGKQILRVSRAVVLGFGCFMGVLAVVLNVAGVSLGWMYLAMGVIVGSAVIPIALLLLWSKANAVGAMGGAVSGCALGVAVWLTVAKVQYGRVNLDTTGRNAPMLAGNLVSILVGGAVHAACSLLRPQHYDWGTSREMITTVESVHAALDDELKEERLVHAKRWIVRWGLVFTAVIVVAWPALSLPARRYSLGYFTLWAAVAIAWGTVGSVVIILLPVAESWTTITKVCAGMFTNDAVYDRLDDVNLRLRAIMGAMPEAEKRYRQLHETEMHPAGTHPANDDDDDNNNNQMMHS
- stoichiometry N (SEC): 4

B2: full-length Arabidopsis thaliana DUR3 fused with C-terminal GFP (natural protein, UniProt F4KD71 1-704, looked up)
chain: MATCPPFDFSTKYYDGDGGCQRQSSFFGGTTVLDQGVGYAVILGFGAFFAVFTSFLVWLEKRYVGARHTSEWFNTAGRNVKTGLIASVIVSQWTWAATILQSSNVAWQYGVSGPFWYASGATIQVLLFGVMAIEIKRKAPNAHTVCEIVKARWGTATHIVFLVFCLATNVVVTAMLLLGGSAVVNALTGVNLYAASFLIPLGVVVYTLAGGLKATFLASYVHSVIVHVALVVFVFLVYTSSKELGSPSVVYDRLKDMVAKSRSCTEPLSHHGQACGPVDGNFRGSYLTMLSSGGAVFGLINIVGNFGTVFVDNGYWVSAIAARPSSTHKGYLLGGLVWFAVPFSLATSLGLGALALDLPISKDEADRGLVPPATAIALMGKSGSLLLLTMLFMAVTSAGSSELIAVSSLFTYDIYRTYINPRATGRQILKISRCAVLGFGCFMGILAVVLNKAGVSLGWMYLAMGVLIGSAVIPIAFMLLWSKANAFGAILGATSGCVFGIITWLTTAKTQYGRVDLDSTGKNGPMLAGNLVAILTGGLIHAVCSLVRPQNYDWSTTREIKVVEAYASGDEDVDVPAEELREEKLRRAKAWIVKWGLVFTILIVVIWPVLSLPARVFSRGYFWFWAIVAIAWGTIGSIVIIGLPLVESWDTIKSVCMGMFTNDRVMKKLDDLNHRLRALTMAVPEAEKIYLLELEKTKKNDEEG
- stoichiometry N (SEC): 4
